Patent US20230212319A1, “NOVEL ANTIGEN BINDING DOMAINS AND SYNTHETIC ANTIGEN RECEPTORS INCORPORATING THE SAME” (University of Southern California, priority 2020, published 2023)

B1: 22169 (protein)
chain: MALPVTALLLPLALLLHAARPEVQLVESGGGLVQPGGSLRLSCAASGFASDYYIIGWFRQAPGKEREGVSCISSRYANTNYADSVKGRFTISRDNAKNTVYLQMNSLKPEDTAVYYCAADTRRYTCPDIATMHRNFDSWGQGTLVTVSSGTGGGGSGGGGSGGGGSEFDIQMTQSPSSLSASVGDRVTITCKASDHINNWLAWYQQKPGQAPKLLIYGATTLETGVPSRFSGSGSGTDYTLTISSLQPEDFATYYCQQSWNTPWTFGQGTKLEIKRLEIQNPDPAVYQLRDSKSSDKSVCLFTDFDSQTNVSQSKDSDVYITDKCVLDMRSMDFKSNSAVAWSNKSDFACANAFNNSIIPEDTFFPSSDVPCDVKLVEKSFETDTNLNFQNLSVIGFRILLLKVAGFNLLMTLRLWSSRAKRSGSGVKQTLNFDLLKLAGDVESNPGPTSATMDWIWRILFLVGAATGAHSGPQVQLQESGGGLAQAGGSLRLSCAASGRTFSMGWFRQAPGKEREFVAAITYSGGSPYYASSVRGRFTISRDNAKNTVYLQMNSLKPEDTAVYYCAANPTYGSDWNAENWGQGTQVTVSSGSGGGGSGGGGSGGGGSFEQVQLQQPGAELVKPGASVKMSCKASGYAFSSYWINWMKQKPGQGLEWIGQIYPGDGDTNYNGKFKGRATLTADTSSSTAYMQLSSLTSEDSAVYFCARSITTVVGCAMDYWGQGTSVTVSSTREDLKNVFPPEVAVFEPSKAEIAHTQKATLVCLATGFYPDHVELSWWVNGKEVHSGVCTDPQPLKEQPALNDSRYCLSSRLRVSATFWQNPRNHFRCQVQFYGLSENDEWTQDRAKPVTQIVSAEAWGRADCGITSASYHQGVLSATILYEILLGKATLYAVLVSALVLMAMVKRKDSRGRAKRSGSGATNFSLLKQAGDVEENPGPSRGHMTEYKPTVRLATRDDVPRAVRTLAAAFADYPATRHTVDPDRHIERVTELQELFLTRVGLDIGKVWVADDGAAVAVWTTPESVEAGAVFAEIGPRMAELSGSRLAAQQQMEGLLAPHRPKEPAWFLATVGVSPDHQGKGLGSAVVLPGVEAAERAGVPAFLETSAPRNLPFYERLGFTVTADVEVPEGPRTWCMTRKPGA
B2: 21873 (protein)
chain: MALPVTALLLPLALLLHAARPDIQMTQSPSSLSASVGDRVTITCRASQDISSYLNWYQQKPGKAPKLLIYYTSRLHSGVPSRFSGSGSGTDFTLTISSLQPEDFATYYCQQGNTLPYTFGQGTKVEIKRLEDLKNVFPPEVAVFEPSEAEISHTQKATLVCLATGFYPDHVELSWWVNGKEVHSGVCTDPQPLKEQPALNDSRYCLSSRLRVSATFWQNPRNHFRCQVQFYGLSENDEWTQDRAKPVTQIVSAEAWGRADCGFTSESYQQGVLSATILYEILLGKATLYAVLVSALVLMAMVKRKDSRGRAKRSGSGATNFSLLKQAGDVEENPGPTSMDWIWRILFLVGAATGAHSFEVQLVESGGGLVQPGGSLRLSCAASGYTFSDYFMSWVRQAPGKGLEWVATISNGGTYTYYPDSVKGRFTISRDNSKNTLYLQMNSLRAEDTAVYYCARFDGYIFDYWGQGTLVTVSSTRIQNPDPAVYQLRDSKSSDKSVCLFTDFDSQTNVSQSKDSDVYITDKCVLDMRSMDFKSNSAVAWSNKSDFACANAFNNSIIPEDTFFPSPESSCDVKLVEKSFETDTNLNFQNLSVIGFRILLLKVAGFNLLMTLRLWSSRAKRSGSGVKQTLNFDLLKLAGDVESNPGPSRGHMTEYKPTVRLATRDDVPRAVRTLAAAFADYPATRHTVDPDRHIERVTELQELFLTRVGLDIGKVWVADDGAAVAVWTTPESVEAGAVFAEIGPRMAELSGSRLAAQQQMEGLLAPHRPKEPAWFLATVGVSPDHQGKGLGSAVVLPGVEAAERAGVPAFLETSAPRNLPFYERLGFTVTADVEVPEGPRTWCMTRKPGA
B3: 4725 (protein)
chain: MALPVTALLLPLALLLHAARPDIQMTQSPSSLSASVGDRVTITCKASDHINNWLAWYQQKPGQAPKLLIYGATTLETGVPSRFSGSGSGTDYTLTISSLQPEDFATYYCQQSWNTPWTFGQGTKLEIKRLEDLKNVFPPEVAVFEPSEAEISHTQKATLVCLATGFYPDHVELSWWVNGKEVHSGVCTDPQPLKEQPALNDSRYCLSSRLRVSATFWQNPRNHFRCQVQFYGLSENDEWTQDRAKPVTQIVSAEAWGRADCGFTSESYQQGVLSATILYEILLGKATLYAVLVSALVLMAMVKRKDSRGRAKRSGSGATNFSLLKQAGDVEENPGPTSMDWIWRILFLVGAATGAHSGPQVQLQESGGGLAQAGGSLRLSCAASGRTFSMGWFRQAPGKEREFVAAITYSGGSPYYASSVRGRFTISRDNAKNTVYLQMNSLKPEDTAVYYCAANPTYGSDWNAENWGQGTQVTVSSGSGGGGSGGGGSGGGGSFEQVQLQQPGAELVKPGASVKMSCKASGYAFSSYWINWMKQKPGQGLEWIGQIYPGDGDTNYNGKFKGRATLTADTSSSTAYMQLSSLTSEDSAVYFCARSITTVVGCAMDYWGQGTSVTVSSTRIQNPDPAVYQLRDSKSSDKSVCLFTDFDSQTNVSQSKDSDVYITDKCVLDMRSMDFKSNSAVAWSNKSDFACANAFNNSIIPEDTFFPSPESSCDVKLVEKSFETDTNLNFQNLSVIGFRILLLKVAGFNLLMTLRLWSSRAKRSGSGVKQTLNFDLLKLAGDVESNPGPSRGHMTEYKPTVRLATRDDVPRAVRTLAAAFADYPATRHTVDPDRHIERVTELQELFLTRVGLDIGKVWVADDGAAVAVWTTPESVEAGAVFAEIGPRMAELSGSRLAAQQQMEGLLAPHRPKEPAWFLATVGVSPDHQGKGLGSAVVLPGVEAAERAGVPAFLETSAPRNLPFYERLGFTVTADVEVPEGPRTWCMTRKPGA
modifications: Synthetic Polynucloetide
B4: 22128 (protein)
chain: MALPVTALLLPLALLLHAARPQVQLVESGGGLVQPGGSLRLSCAASGFTFTNHAMSWVRQAPGKGLELVSSISGNGRTTYYADSVKGRFTISRDISKNTLDLQMNSLRAEDTAVYYCAKDGGETLVDSRGQGTLVTVSSLEGGGGSGGGGSIEGGGGSGGGGSKVQLLESGGGLVQPGGSLRLSCAASGFIFSSYAMSWVRQAPGKGQEWVSGVSGTGVNTYYADSVKGRFTISRDNSKNTLYLQMNSLRAEDTAVYYCASGKGWDSGSWYEDYRGQGTLVTVSSGTGGGGSGGGGSGGGGSEFDIQMTQSPSSLSASVGDRVTITCKASDHINNWLAWYQQKPGQAPKLLIYGATTLETGVPSRFSGSGSGTDYTLTISSLQPEDFATYYCQQSWNTPWTFGQGTKLEIKRLEDLKNVFPPEVAVFEPSEAEISHTQKATLVCLATGFYPDHVELSWWVNGKEVHSGVCTDPQPLKEQPALNDSRYCLSSRLRVSATFWQNPRNHFRCQVQFYGLSENDEWTQDRAKPVTQIVSAEAWGRADCGFTSESYQQGVLSATILYEILLGKATLYAVLVSALVLMAMVKRKDSRGRAKRSGSGATNFSLLKQAGDVEENPGPTSMDWIWRILFLVGAATGAHSFEQVQLQQPGAELVKPGASVKMSCKASGYAFSSYWINWMKQKPGQGLEWIGQIYPGDGDTNYNGKFKGRATLTADTSSSTAYMQLSSLTSEDSAVYFCARSITTVVGCAMDYWGQGTSVTVSSTRIQNPDPAVYQLRDSKSSDKSVCLFTDFDSQTNVSQSKDSDVYITDKCVLDMRSMDFKSNSAVAWSNKSDFACANAFNNSIIPEDTFFPSPESSCDVKLVEKSFETDTNLNFQNLSVIGFRILLLKVAGFNLLMTLRLWSSRAKRSGSGVKQTLNFDLLKLAGDVESNPGPSRAHMTEYKPTVRLATRDDVPRAVRTLAAAFADYPATRHTVDPDRHIERVTELQELFLTRVGLDIGKVWVADDGAAVAVWTTPESVEAGAVFAEIGPRMAELSGSRLAAQQQMEGLLAPHRPKEPAWFLATVGVSPDHQGKGLGSAVVLPGVEAAERAGVPAFLETSAPRNLPFYERLGFTVTADVEVPEGPRTWCMTRKPGA

Experiments:
[1] = tested on: RAJI cells; assay: JNG assay, co-culture with RAJI cells; type: cell-based; conditions: JNG cells expressing construct, co-culture with Raji
Outline: (§1)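 Read-out is NFAT-driven GFP measured by flow cytometry after ~4–18 h co-culture of SAR-expressing JNG cells with target cells (E:T about 1:2). SARs were introduced by lentiviral spinfection and selected with puromycin or blasticidin when possible; scores (+/- to 5+ ≈ 5–50% GFP+) are relative to parental JNG cells.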

[2] = tested on: RAJI-CD19-KO cells; assay: JNG assay, co-culture with RAJI-CD19-KO cells; type: cell-based; conditions: co-culture with Raji-CD19-KO
Outline: as §1

[3] = tested on: RS;411; assay: JNG assay, co-culture with RS;411 cells; type: cell-based; conditions: co-culture with RS411
Outline: as §1

[4] = tested on: U-87 MG; assay: JNG NFAT-GFP assay, co-culture with U-87 MG cells; type: cell-based
[5] = tested on: MCF7 cells; type: cell-based
[6] = tested on: Daudi cells expressing luciferase; assay: Daudi-luciferase i.p. model in NSG mice, CD16 SAR-T plus rituximab; type: in vivo; conditions: rituximab plus 1 × 10^7 SAR-T cells, IL-2, NSG mice
Procedure: Use of universal SAR-T cells expressing CD16 as the antigen binding domain. Daudi cells expressing luciferase are injected intraperitoneally (i.p.; 0.3 × 10^6 cells/mouse) in NSG mice (Jackson Laboratory). Some mice receive rituximab ([…]) i.p. Human T cells (1 × 10^7) expressing CD8SP-hu-mROO5-1-vL-[hTCRb-S57C]-F-P2A-IgSP-Apa-CD16-V158-v2-G4Sx3v2-hu-mROO5-1-vH-[hTCRa-T48C] (SEQ ID NO: 4725) SAR are injected four days after Daudi inoculation. Control mice receive tissue culture medium instead of rituximab or T cells. Rituximab injection is repeated weekly for 4 weeks, with no further T lymphocyte injection. All mice receive intraperitoneal injections of 1,000-2,000 IU of IL-2 twice a week for 4 weeks.

[7] = tested on: L363 cells; assay: JNG assay, co-culture with L363 cells; type: cell-based; conditions: co-culture with L363
Outline: as §1

[8] = tested on: L363-CD38-KO; assay: JNG NFAT-GFP assay, co-culture with L363-CD38-KO cells; type: cell-based

| Molecule | NFAT-GFP ASSAY: Raji [1] | NFAT-GFP ASSAY: Raji-CD19-KO [2] | NFAT-GFP ASSAY: RS411 [3] | further results |
| --- | --- | --- | --- | --- |
| B1 | 3+ (refer to approximately 5%, 10%, 20%, 30%, 40% and 50% GFP positive cells) | 4+ (refer to approximately 5%, 10%, 20%, 30%, 40% and 50% GFP positive cells) | 2+ (refer to approximately 5%, 10%, 20%, 30%, 40% and 50% GFP positive cells) | NFAT-GFP ASSAY: U-87 MG [4]: 3+ (refer to approximately 5%, 10%, 20%, 30%, 40% and 50% GFP positive cells) |
| B2 | – | – | – | NFAT-GFP ASSAY: MCF-7 [5]: did not show GFP induction |
| B3 | – | – | – | tumor growth, Daudi-luciferase i.p. [6]: reduced tumor growth |
| B4 | 3+ (refer to approximately 5%, 10%, 20%, 30%, 40% and 50% GFP positive cells) | 2+ (refer to approximately 5%, 10%, 20%, 30%, 40% and 50% GFP positive cells) | 2+ (refer to approximately 5%, 10%, 20%, 30%, 40% and 50% GFP positive cells) | NFAT-GFP ASSAY: L363 [7]: 2+ (refer to approximately 5%, 10%, 20%, 30%, 40% and 50% GFP positive cells); NFAT-GFP ASSAY: L363-CD38-KO [8]: 2+ (refer to approximately 5%, 10%, 20%, 30%, 40% and 50% GFP positive cells) |
